Test [1] addresses L19-UG-TNFRII (human) (UniProt P20333). Nature of the test: SDS-PAGE, non-reducing; SDS-PAGE 4%-12% of purified L19-UG-TNFRII under non-reducing conditions.
The target is the same in test [2]. Nature of the test: SEC; Superdex 200 (S200) FPLC of purified L19-UG-TNFRII in native conditions. A general note: SEC sorts molecules by how far they enter the pores of the column.

This is an account of results in article PMC3226451.

The term stoichiometry N denotes the number of molecules, sites or subunits per partner or assembly. As for “L19-UG-TNFRII (from UniProt P20333 23-257)”, the stoichiometry N in the test with L19-UG-TNFRII (human) [1] and in the test with L19-UG-TNFRII (human) [2] was 2 throughout.
